Laboratory results reported in paper PMC8763006.

Molecular target: glutathione S-transferase Pi 1 (GSTP1) (human (endogenous in 97H and Huh7)), P09211
Experiment: native gel or EMSA; total protein of 97H-PCSK9 and 97H-mock cells in nondenaturing, nonreducing buffer without boiling, PAGE gel without SDS; Western blot with anti-GSTP1
Conditions: remark: other sources report otherwise

stoichiometry N: 2
B1: glutathione S-transferase Pi 1 (GSTP1), P09211 1-210 (natural protein)
chain: MPPYTVVYFPVRGRCAALRMLLADQGQSWKEEVVTVETWQEGSLKASCLYGQLPKFQDGDLTLYQSNTILRHLGRTLGLYGKDQQEAALVDMVNDGVEDLRCKYISLIYTNYEAGKDDYVKALPGQLKPFETLLSQNQGGKTFIVGDQISFADYNLLDLLLIHEVLAPGCLDAFPLLSAYVGRLSARPKLKAFLASPEYVNLPINGNGKQ
